According to patent US20220281965A1 (AstraZeneca / MedImmune, published 2022):

T1: mature recombinant cynomolgus GDF-15 with an N-terminal Flag and His tag, biotinylated (cynomolgus, UniProt G7PWZ3 197-308, chemically biotinylated with EZ link Sulfo-NHS-LC-Biotin, sites not stated)
T1 construct: not shown: N-terminal Flag and His tags
T1 sequence: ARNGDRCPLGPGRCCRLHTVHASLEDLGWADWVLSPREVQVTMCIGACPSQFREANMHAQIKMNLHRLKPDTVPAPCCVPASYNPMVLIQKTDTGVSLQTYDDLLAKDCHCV

T2: mature recombinant mouse GDF-15 with Flag and His tags (mouse, UniProt Q9Z0J7 189-303)
T2 construct: also called Flag tagged mouse GDF-15; not shown: FLAG and poly-His tags immediately C-terminal to the furin cleavage site (N-terminal on the mature protein)
T2 sequence: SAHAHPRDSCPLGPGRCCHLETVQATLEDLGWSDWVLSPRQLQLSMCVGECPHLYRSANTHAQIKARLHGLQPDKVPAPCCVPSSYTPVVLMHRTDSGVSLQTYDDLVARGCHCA

T3: mature recombinant human GDF-15 H202D variant with an N-terminal Flag and His tag, biotinylated (human, UniProt Q99988 197-308, chemically biotinylated with EZ link Sulfo-NHS-LC-Biotin, sites not stated)
T3 construct: also called Human H202D; not shown: N-terminal Flag and His tags
T3 chain: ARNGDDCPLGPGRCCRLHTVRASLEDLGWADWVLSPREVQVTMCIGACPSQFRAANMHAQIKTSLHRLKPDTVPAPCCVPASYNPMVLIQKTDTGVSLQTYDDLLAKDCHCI

T4: mature recombinant human GDF-15 with an N-terminal Flag and His tag, biotinylated (human, UniProt Q99988 197-308, chemically biotinylated with EZ link Sulfo-NHS-LC-Biotin, sites not stated)
T4 construct: not shown: N-terminal Flag and His tags
T4 sequence: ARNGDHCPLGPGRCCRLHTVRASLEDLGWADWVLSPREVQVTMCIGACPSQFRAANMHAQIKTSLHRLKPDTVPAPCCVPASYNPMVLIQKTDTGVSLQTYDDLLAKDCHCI

T5: mature human GDF-15 (human, UniProt Q99988 197-308)
T5 construct: Homodimer; also called hGDF-15; recombinant hu-GDF15
T5 sequence: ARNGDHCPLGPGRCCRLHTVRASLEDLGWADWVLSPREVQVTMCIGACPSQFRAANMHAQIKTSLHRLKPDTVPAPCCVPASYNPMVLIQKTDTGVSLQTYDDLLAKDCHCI

T6: biotinylated cynomolgus GDF-15 (cynomolgus, UniProt G7PWZ3 197-308, biotinylated, sites not stated)
T6 construct: also called Cyno GDF-15
T6 sequence: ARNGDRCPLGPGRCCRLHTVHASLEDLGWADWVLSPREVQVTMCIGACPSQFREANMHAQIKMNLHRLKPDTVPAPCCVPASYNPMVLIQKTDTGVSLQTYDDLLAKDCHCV

T7: biotinylated human H202D GDF-15 variant (human, UniProt Q99988 197-308, biotinylated, sites not stated)
T7 construct: also called Human GDF-15 H202D
T7 chain: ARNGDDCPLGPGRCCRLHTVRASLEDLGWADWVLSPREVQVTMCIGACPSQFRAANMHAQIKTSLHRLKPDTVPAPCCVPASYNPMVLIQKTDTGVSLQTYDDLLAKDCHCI

T8: mouse GDF-15 (mouse, UniProt Q9Z0J7 189-303)
T8 construct: also called mGDF-15
T8 sequence: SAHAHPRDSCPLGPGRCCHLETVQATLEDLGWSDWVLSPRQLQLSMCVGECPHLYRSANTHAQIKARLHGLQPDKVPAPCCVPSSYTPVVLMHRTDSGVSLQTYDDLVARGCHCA


Legend:
[1] = molecular target: T1, mature recombinant cynomolgus GDF-15 …; test: SPR Biacore 8K, 25 C, biotinylated GDF-15 on streptavidin C1 chip, Fab as analyte
Method: (§1) The experiments were carried out using mature recombinant human GDF-15, human GDF-15 H202D variant, mouse GDF-15, and cynomolgus GDF-15 with an N-terminal Flag and His tag. All species were chemically biotinylated using EZ link Sulfo-NHS-LC-Biotin (Thermo).
(§2) Streptavidin was covalently immobilized to a C1 chip surface using standard amine coupling techniques at a concentration of 4 μg/ml in 10 mM Sodium acetate pH 4.5. Recombinant biotinylated GDF-15 species were titrated onto the streptavidin chip surface in HBS-EP+ buffer to enable Fab binding.
(§3) Multiple buffer-only injections were made under the same conditions to allow for double reference subtraction of the final sensorgram sets, which were analyzed using Biacore 8K Evaluation Software. The chip surface was fully regenerated with pulses of 50 mM NaOH.

[2] = molecular target: T2, mature recombinant mouse GDF-15 with …; test: as above
Method: as §1, §2, §3

[3] = molecular target: T3, mature recombinant human GDF-15 H202D …; test: as above
Method: as §1, §2, §3

[4] = molecular target: T4, mature recombinant human GDF-15 with an …; test: as above
Method: as §1, §2, §3

mature human GDF-15 = molecular target: T5, mature human GDF-15; test: HTRF epitope competition; competitor DyLight 650 labelled Antibody A; Europium labelled human GDF-15
From the text: Antibodies from the immunizations with human GDF-15, in the form of crude supernatants from the immunization or in the form of purified IgGs, were chosen on the basis that they bind and compete with an epitope recognized by a control anti-GDF-15 antibody “Antibody A”. A biochemical epitope competition format was applied using an HTRF epitope competition assay that measured the binding of DyLight 650 labelled Antibody A to Europium labelled human GDF-15 (Prospec). In the absence of Antibody A binding, there is no detectable FRET fluorescence. When Antibody A binds to GDF-15, the resulting physical proximity between the secondary reagent donor/acceptor pair results in FRET. Competition with an antibody that recognizes the same or similar epitope will result in a dose dependent reduction of the FRET signal. FRET was measured ratiometrically [665 nm (acceptor)/620 nm (donor)] on an Envision plate reader, and IC₅₀ values were determined by curve fitting the data to a four parameter logistic equation using PRISM 6® software (Graphpad).

[5] = molecular target: T6, biotinylated cynomolgus GDF-15; test: HTRF binding assay, biotinylated antigen, titration of antibody
From the text: (§4) Supernatants generated from the immunizations with human GDF-15 and purified IgGs were screened to identify IgGs with specific binding to human, cynomolgus, or mouse GDF-15. The HTRF (Homogeneous Time Resolved Fluorescence) assay is based on detection of a measurable FRET signal upon binding of a titration of test antibody to biotinylated human H202D GDF-15 variant, cynomolgus GDF-15 and mouse GDF-15. Europium cryptate (EuK) labelled Streptavidin and anti-human IgG XL665 (Cis Bio) were used as secondary detection reagents serving as energy donor and acceptor respectively. In the absence of test antibody binding, there is no detectable FRET fluorescence. When test antibody binds to GDF-15, the resulting physical proximity between the secondary reagent donor/acceptor pair results in FRET. FRET was measured ratiometrically [665 nm (acceptor)/620 nm (donor)] on an Envision plate reader, and data plotted using PRISM 6® software (Graphpad).

[6] = molecular target: T7, biotinylated human H202D GDF-15 variant; test: as above
From the text: as §4

mouse GDF-15 = molecular target: T8, mouse GDF-15; test: as above
From the text: as §4

Row | Binder | Kd [1] [nM] | koff [1] [s⁻¹] | kon [1] [M⁻¹ s⁻¹] | Kd [2] [nM] | koff [2] [s⁻¹] | kon [2] [M⁻¹ s⁻¹] | Kd [3] [nM] | koff [3] [s⁻¹] | kon [3] [M⁻¹ s⁻¹] | Kd [4] [nM] | koff [4] [s⁻¹] | kon [4] [M⁻¹ s⁻¹] | IC50 (mature human GDF-15) [nM] | binding result [5] | binding result [6] | binding result (mouse GDF-15)
1 | AB1170242 Fab (Fab, V domains shown, Fab of the humanized antibody, expressed as in Spooner et al. 2015) VH: QVQLQESGPGLLKPSQTLSLTCTVSGFSLSTYGMGVGWIRQPAGKGLEWLANIWWNDDKYYNSALKSRLTISKDTSKNQVSLKLSSVTAADTAVYYCAQEVYGWFAYWGQGTLVTVSS VL: DIQMTQSPSTLSASVGDRVTITCKASQNVGTNVAWYQQKPGQPPKALIYSASYRYSGVPDRFSGSGSGTDFTLTISSLQAEDVAVYYCQQYNSYPLTFGQGTKLEIK | 2.88 | 0.0245 | 8.5e+06 | 908 | 0.826 | 903000 | 3.13 | 0.0233 | 7.47e+06 | 3.22 | 0.0247 | 7.68e+06 |  |  |  | 
2 | AB1170249 Fab (Fab, V domains shown, Fab of the humanized antibody, expressed as in Spooner et al. 2015) VH: QVQLQESGPGLLKPSQTLSLTCTVSGFSLSTYGMGVGWIRQPLGKGLEWLANIWWNDDKYYNSALKSRLTISKDTSKNQVSLKLSSVTAADTAVYYCAQMAYSWFAYWGQGTLVTVSS VL: DIQMTQSPSFLSASVGDRVTITCKASQNMDTNVAWYQQKPGQPPKALIYSASYRYSGVPDRFSGSGSGTDFTLTISSLQAEDVAVYYCQQYNSYPFTFGQGTKLEIK | 3.11 | 0.0129 | 4.15e+06 | 1140 | 0.928 | 804000 | 3.04 | 0.0113 | 3.72e+06 | 3.13 | 0.0114 | 3.63e+06 |  |  |  | 
3 | AB1170241 Fab (Fab, V domains shown, Fab of the humanized antibody, expressed as in Spooner et al. 2015) VH: QVQLVQSGSELKKPGASVKVSCKASGYTFTDYNMDWIRQSPGKGLEWIGDINPNQGGTFYNQKFKDRATLTVDKSTSTAYMELRSLRSDDTAVYYCAREEKLYFGLMDYWGQGTTVTVSS VL: DIQMTQSPSSLSASVGDRVTITCRASENIYSYLAWYQQKPGKAPKLLVYNAKTLAEGVPSRFSGSGSGIDFTLTISSLQPEDFATYYCQHQYGSPPTFGQGTKLEIK | 0.476 | 0.00279 | 5.87e+06 | 107 | 0.329 | 3.07e+06 | 0.156 | 0.000696 | 4.45e+06 | 0.159 | 0.000663 | 4.18e+06 |  |  |  | 
4 | AB1170243 Fab (Fab, V domains shown, Fab of the humanized antibody, expressed as in Spooner et al. 2015) VH: QVQLVQSGSELKKPGASVKVSCKASGYTFTDYNMDWIRQSPGKGLEWIGDINPNNGGTFYNQKFKDRATLTVDKSTSTAYMELRSLRSDDTAVYYCAREEKLYFGLMDYWGQGTTVTVSS VL: DIQMTQSPSSLSASVGDRVTITCRASENIYSYLAWYQQKPGKAPKLLVYNAKTLAEGVPSRFSGSGSGIDFTLTISSLQPEDFATYYCQHQYGSPPTFGQGTKLEIK | 0.273 | 0.00169 | 6.23e+06 | 75 | 0.281 | 3.9e+06 | 0.09 | 0.000425 | 4.85e+06 | 0.09 | 0.000422 | 4.74e+06 |  |  |  | 
5 | AB1170244 Fab (Fab, V domains shown, Fab of the humanized antibody, expressed as in Spooner et al. 2015) VH: EVQLVESGGGLVKPGGSLRLSCAASGFTFSSYAMSWVRQAPGKGLEWVAYISSGGDNIYYADTVKGRFTISRDNSKNTLYLQMNSLKTEDTAVYYCTRALVENAYFDYWGQGTTVTVSS VL: DSVLTQSPDSLAVSLGERATINCRASKSVSTSTYSYMHWYQQKPGQPPKLLIKYASYLESGVPDRFSGSGSGTDFTLKISRVEAEDVGVYYCQHSREFPWTFGGGTKVEIK | 5.47 | 0.0145 | 2.64e+06 | 916 | 0.54 | 591000 | 2.39 | 0.00595 | 2.49e+06 | 2.35 | 0.00558 | 2.39e+06 |  |  |  | 
6 | AB1170245 Fab (Fab, V domains shown, Fab of the humanized antibody, expressed as in Spooner et al. 2015) VH: EVQLVESGGGLVKPGGSLRLSCAASGFTFSSYAMSWVRQAPGKGLEWVAYISSGGDYIYYADTVKGRFTISRDNSKNTLYLQMNSLKTEDTAVYYCTRALVDNAYFDYWGQGTTVTVSS VL: DIVLTQSPDSLAVSLGERATINCRASKSVSTSSYSYMHWYQQKPGQPPKLLIKYASYLEFGVPSRFSGSGSGTDFTLTISSLQPEDVATYYCQHSREFPWTFGGGTKVEIK | 20.9 | 0.0712 | 3.42e+06 | 2400 | 1.5 | 643000 | 10.5 | 0.0321 | 3.07e+06 | 10.2 | 0.0315 | 3.1e+06 |  |  |  | 
7 | AB1170019 (antibody, V domains shown) VH: EVQLQQSGPELVKPGASVKIPCKASGYTFTDYNMDWVKQSHGKSLEWIGDINPNNGGTFYNQKFKDKATLTVDKSSSTAYMELRSLTSEDTAVYYCAREEKLYFGLMDYWGQGTSVTVSS VL: DIQMTQSPASLSASVGETVTITCRASENIYSYLAWYQQKQGKSPQLLVYNAKTLAEGVPSRFSGSGSGIQFSLKINILQPEDFGNYYCQHQYGSPPTFGGGTKLEIK |  |  |  |  |  |  |  |  |  |  |  |  | 0.864 | binds | binds | 
8 | AB1520085 Fab (Fab, V domains shown, Fab of the anti-mouse GDF-15 mouse IgG1, expressed as in Spooner et al. 2015) VH: QVQLQQPGAELVMPGASVKMSCKASGYTFTDYWMHWVKQRPGQGLEWIGVIDTSESYTSYNQKFKGKATLTVDESSSTAYMQLSSLTSEDSAVYFCARGGTTVVLDYWGQGTTLTVSS VL: DIVMTQSQKFMSTSVGDRVSVTCKASQNVGTAVAWYQKKPGQSPKALIYSASTRYTGVPDRFTGSGSGTDFTLTISNVQSEDLAEYFCQQYSSSPWTFGGGTKLELK | 2.8 | 0.0078 | 2.79e+06 | 0.14 | 0.000244 | 1.75e+06 | 1.63 | 0.00478 | 2.92e+06 | 1.64 | 0.00489 | 2.97e+06 |  |  |  | 
9 | AB1170074 (antibody, V domains shown) VH: EVQLQQSGRELVKPGASVKMSCKASGYTFTNYVMHWVKQKPGQGLEWIGYINPHNDGTEYSEKFKGKATLTSDKSSSTAYMELSSLTSEDSAVYYCARWYYDGGYFAYWGQGTLVTVSA VL: DIVMTQSPATLSVTPGDRVSLSCRASQSISDYLHWYQQKSHESPRLLIKYASQSISGIPSRFSGSGSGSDFTLSINSVEPEDVGVYYCQNGHSFPLTFGAGTKLELK |  |  |  |  |  |  |  |  |  |  |  |  | 1.37 | binds |  | binds
